From article PMC2734569, “Functional mapping of the fission yeast DNA polymerase δ B-subunit Cdc1 by site-directed and random pentapeptide insertion mutagenesis” (BMC Molecular Biology, 2009)

Legend:
Test in all cases: two-hybrid; LexA-Cdc1 bait (pBTM116 or pBTM116BN) with Gal4 activation domain-Cdc27 prey (pGAD2F-Cdc27) in S. cerevisiae CTY10-5d; ONPG liquid culture beta-galactosidase assay, mean of triplicates, as percent of wild-type Cdc1
Settings in all cases: partners not purified
[1] = molecular target: T1, Cdc1-E1 (Schizosaccharomyces pombe, UniProt P87324 1-462, Ser-GlyValProGlnSer-Asp)
T1 construct: Cdc1, S. pombe, with a pentapeptide inserted after residue 66; source: yeast two-hybrid fusion, in S. cerevisiae CTY10-5d
T1 sequence (looked up): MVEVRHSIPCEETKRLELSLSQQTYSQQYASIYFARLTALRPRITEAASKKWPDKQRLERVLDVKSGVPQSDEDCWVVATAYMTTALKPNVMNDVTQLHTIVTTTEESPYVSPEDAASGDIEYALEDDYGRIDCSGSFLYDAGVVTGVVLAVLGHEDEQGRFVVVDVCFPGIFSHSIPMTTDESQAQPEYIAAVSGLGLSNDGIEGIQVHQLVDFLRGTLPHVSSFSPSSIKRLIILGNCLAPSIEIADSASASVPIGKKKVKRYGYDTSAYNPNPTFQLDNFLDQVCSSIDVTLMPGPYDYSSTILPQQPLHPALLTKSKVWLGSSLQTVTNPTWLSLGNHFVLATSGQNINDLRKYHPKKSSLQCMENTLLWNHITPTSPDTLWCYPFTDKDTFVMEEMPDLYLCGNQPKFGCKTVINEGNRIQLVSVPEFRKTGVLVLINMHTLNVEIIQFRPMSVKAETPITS

[2] = molecular target: T2, Cdc1-J8 (Schizosaccharomyces pombe, UniProt P87324 1-462, Lys-GlyValProLeuLys-Pro)
T2 construct: Cdc1, S. pombe, with a pentapeptide inserted after residue 83; also called J19; source: yeast two-hybrid fusion, in S. cerevisiae CTY10-5d
T2 sequence (looked up): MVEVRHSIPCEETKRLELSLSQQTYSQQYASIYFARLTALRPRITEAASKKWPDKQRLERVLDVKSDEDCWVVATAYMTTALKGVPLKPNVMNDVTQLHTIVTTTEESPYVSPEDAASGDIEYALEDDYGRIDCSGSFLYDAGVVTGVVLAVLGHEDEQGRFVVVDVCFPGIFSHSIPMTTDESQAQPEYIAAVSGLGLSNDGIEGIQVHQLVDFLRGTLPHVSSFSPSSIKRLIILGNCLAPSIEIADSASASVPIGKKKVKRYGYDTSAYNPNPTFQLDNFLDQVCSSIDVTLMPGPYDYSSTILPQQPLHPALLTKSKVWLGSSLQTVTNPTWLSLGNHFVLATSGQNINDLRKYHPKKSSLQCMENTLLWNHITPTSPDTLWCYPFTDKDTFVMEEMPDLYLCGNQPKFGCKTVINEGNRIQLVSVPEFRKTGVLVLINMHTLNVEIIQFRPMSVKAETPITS

[3] = molecular target: T3, Cdc1-A2 (Schizosaccharomyces pombe, UniProt P87324 1-462, Gly293Ala)
T3 construct: Cdc1, S. pombe, point mutant; source: yeast two-hybrid fusion, in S. cerevisiae CTY10-5d
T3 sequence (looked up): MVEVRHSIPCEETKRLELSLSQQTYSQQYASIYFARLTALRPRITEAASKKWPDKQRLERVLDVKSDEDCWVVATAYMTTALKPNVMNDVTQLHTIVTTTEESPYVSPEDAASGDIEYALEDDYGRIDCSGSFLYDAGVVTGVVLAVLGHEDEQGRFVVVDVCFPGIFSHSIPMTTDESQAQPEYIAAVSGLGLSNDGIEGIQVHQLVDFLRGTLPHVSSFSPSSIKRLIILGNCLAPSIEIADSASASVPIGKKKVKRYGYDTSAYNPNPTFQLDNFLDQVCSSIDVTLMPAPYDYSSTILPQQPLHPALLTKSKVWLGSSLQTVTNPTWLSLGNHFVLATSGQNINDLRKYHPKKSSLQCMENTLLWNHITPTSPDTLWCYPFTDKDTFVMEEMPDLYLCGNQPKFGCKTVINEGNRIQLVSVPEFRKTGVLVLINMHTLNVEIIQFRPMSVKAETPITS

[4] = molecular target: T4, Cdc1-E4 (Schizosaccharomyces pombe, UniProt P87324 1-462, Cys-GlyValProProCys-Glu)
T4 construct: Cdc1, S. pombe, with a pentapeptide inserted after residue 10; source: yeast two-hybrid fusion, in S. cerevisiae CTY10-5d
T4 sequence (looked up): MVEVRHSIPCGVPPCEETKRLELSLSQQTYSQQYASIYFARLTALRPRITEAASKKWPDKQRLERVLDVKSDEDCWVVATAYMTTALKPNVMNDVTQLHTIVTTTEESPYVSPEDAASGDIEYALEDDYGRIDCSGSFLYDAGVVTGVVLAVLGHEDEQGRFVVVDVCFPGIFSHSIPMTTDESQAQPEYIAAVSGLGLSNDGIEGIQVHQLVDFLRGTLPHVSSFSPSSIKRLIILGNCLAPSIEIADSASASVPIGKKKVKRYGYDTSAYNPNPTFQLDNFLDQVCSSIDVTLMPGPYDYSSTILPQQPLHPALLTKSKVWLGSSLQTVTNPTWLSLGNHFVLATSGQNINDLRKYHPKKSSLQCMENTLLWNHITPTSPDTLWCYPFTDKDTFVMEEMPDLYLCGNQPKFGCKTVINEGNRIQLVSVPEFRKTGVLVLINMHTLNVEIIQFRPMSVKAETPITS

B1: Cdc27 (fission yeast DNA polymerase delta C-subunit) (natural protein, Schizosaccharomyces pombe, UniProt P30261 1-372, looked up)
chain: MEEWRNFLDIKVINESSLVTVDNLSLQLDISSEKAQEYLNMFYQGNDFLYPIYLIHGQPIDDEINLEIDEESQPISNFPVLQYILCDKSSLQEKQSRLKSGYKTVIFALSSAPLSDFDELLPAVYEIREKDVLYKKEDADKYGFIFNENSVPRVLKKAPSTHSPQLSVPSKTSTIDKTDTRSTEKTKGKDIFSNARNQKGNSSRKNKKAPLENHKEKEPLLPKEEKLSEQAKRERDDLKNIMQLEDESVSTTSVHDSEDDNLDSNNFQLEIGTEAKSAAPDEPQEIIKSVSGGKRRGKRKVKKYATTKDEEGFLVTKEEEVWESFSEDENISTGTSNVVRNKPTTVNIATKKKNTAQSKPQQKSIMSFFGKK
notes: DNA polymerase delta C-subunit Cdc27, S. pombe; prey plasmid pGAD2F-Cdc27; also called pGAD2F-Cdc27; source: yeast two-hybrid fusion, in S. cerevisiae CTY10-5d
two-hybrid beta-galactosidase activity, % of wild-type Cdc1 [1]: 1% | two-hybrid beta-galactosidase activity, % of wild-type Cdc1 [2]: 128% | two-hybrid beta-galactosidase activity, % of wild-type Cdc1 [3]: 19% | two-hybrid beta-galactosidase activity, % of wild-type Cdc1 [4]: 62%
